Our source for the binding values is PMC9239190.

Residue numbers refer to the chain shown, from its start.

Data set [1] deals with T1, AdpA (Streptomyces coelicolor) (UniProt Q9L062).
T1 sequence: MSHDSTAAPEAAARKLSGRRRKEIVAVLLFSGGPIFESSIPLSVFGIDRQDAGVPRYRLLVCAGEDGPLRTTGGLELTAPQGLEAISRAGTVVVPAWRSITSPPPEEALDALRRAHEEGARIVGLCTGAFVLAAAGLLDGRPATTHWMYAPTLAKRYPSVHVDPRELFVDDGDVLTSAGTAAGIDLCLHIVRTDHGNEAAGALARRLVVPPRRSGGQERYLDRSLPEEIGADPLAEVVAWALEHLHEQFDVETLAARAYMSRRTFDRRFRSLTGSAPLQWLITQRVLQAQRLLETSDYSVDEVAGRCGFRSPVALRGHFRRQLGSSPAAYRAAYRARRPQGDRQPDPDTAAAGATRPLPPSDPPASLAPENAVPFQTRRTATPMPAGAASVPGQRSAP
The data set can be described thus: EMSA. The following applies: EMSA: 20 mM Tris-HCl, 2 mM EDTA, 20 mM KCl, 0.5 mM DTT, pH 8.0, 30 C 20 min, 16.5-22 nM probe; FP: 10 mM Tris-HCl, 75 mM NaCl, pH 7.5, 37 C 15 min, 1 nM FAM …. Background: In EMSA bound probe runs differently from free probe, usually more slowly.

For data set [2], the target named is T2, AdpA C62S C62S (Streptomyces coelicolor) (UniProt Q9L062).
T2 sequence: T1 sequence with C62S
The data set can be described thus: EMSA. The following applies: EMSA: 20 mM Tris-HCl, 2 mM EDTA, 20 mM KCl, 0.5 mM DTT, pH 8.0, 30 C 20 min, 16.5-22 nM probe; FP: 10 mM Tris-HCl, 75 mM NaCl, pH 7.5, 37 C 15 min, 1 nM FAM ….

As to “ACACATCCCGCATCGGTGATTACATGGACACGTCCCAATAAGTTGAATCTCATCTGCGCCCCCGTCGAGATTCTCCGTCTCCTGGGGGCGACAATAACAGGCCTACTCAACAGATTTCAATGTGCTTGCCGTCACAAGCGATCTCCTATTGATCAAAAATTAATCAGTGCAGCGAGCTGCACTGATTAATTTTTGCTGGATTTTACCGAGAGGCAGTGGTCGAGGCTTCCGAATCAATAGAATCTGGCATTCCTGATACGGCTGGGTCC (double strand) [PactII-4 probe]”, in data set [1], the binding result is “binds”.
As for “GCACTCCAGTCGGTTACCCAGCCCATACCGGCGCCGTCCTCTCCCGAATCGAGGCTCCCCCACGGCGGCAGCGGCATATTCACCGCCGCCAGTTGAGGACGTTACGGAAGGTGGGCACAGCGCAACACCCCCTTCGGGCCCAATCTTGAATGGCCCGAACGGACTATGGGTAAGCGGCAGATCACCCGGGGGAGTGAGCTGGCGACATGCGCGACGATCCCGACATTCAGGTCATCTCTGTTGCGCCACAACGGACACCGATTGACACACGAGGCGGATTCGGA (double strand) [PwblA probe]”, the binding result in data set [1] and in data set [2] was “binds” throughout.
